This is an account of results in patent publication US7371553.

The test system of series [1] is T1, succinyl-AAPF-p-nitroanilide.
T1 sequence: AAPF

Series [2] has as its system T2, suc-AAPR-pNA.
T2 sequence: AAPR

In series [3] the test system is T3, suc-AAPA-pNA.
T3 sequence: AAPA

Series [4] concerns T4, suc-AAPE-pNA.
T4 sequence: AAPE

For series [5], the target named is T5, suc-AAPR-pNA.
T5 chain: AAPR

The target of series [6] is T6, suc-AAPE-pNA.
T6 chain: AAPE

Series [7] has as its target T7, suc-AAPA-pNA.
T7 chain: AAPA

Series [8] concerns the target T8, succinyl-AAPF-p-nitroanilide.
T8 chain: AAPF

Where two headings read alike, the source gives them in different places.

Broadly, the KM is the concentration of substrate that gives half-maximal velocity. Consider “SBL N62C-e of Example 1 (3,3,4-tricarboxybutyl side chain)”, for which the KM in series [1] amounted to 1460 µM.

On to “SBL N62C (unmodified cysteine mutant, R = H)”, for which the KM in series [1] is 1900 µM.

Take SBL N62C-S-benzyl: the KM result in series [1] is on record as “KM 0.34±0.03 mM”.

In general, kcat/KM refers to the second-order rate constant that governs catalysis at low substrate concentration. For the molecule SBL S166C-S-CH2(CH2)2CH2COO-, in series [1], the KM was found to be 1520 µM and the kcat/KM amounted to 31000 M⁻¹ s⁻¹. Also, in series [2], the KM came to 8200 µM, the kcat/KM was determined as 41 M⁻¹ s⁻¹ and the “ΔΔG‡T = RT ln[(kcat/KM)WT/(kcat/KM)CMM]” value was “S166C-S-h -0.37”.

As for “SBL L217C-c of Example 2 (5,5-bis(aminomethyl)-3-oxo-hexyl side chain)”, the KM in series [1] amounted to 2940 µM.

With SBL S166C-S-CH2(CH2)8CH3, in series [3], the KM came out at 1900 µM and the kcat/KM is 3600 M⁻¹ s⁻¹. For the same molecule, in series [1], the KM worked out at 1090 µM and the kcat/KM is 75000 M⁻¹ s⁻¹.

With SBL S166C-S-CH2CH2NH3+, the “kcat/KM substrate screen (FIG. 10)” value in series [3] is “the substrate screen (FIG. 10) shows that suc-AAPA-pNA and suc-AAPR-pNA are poorer substrates”; in series [2], “the substrate screen (FIG. 10) shows that suc-AAPA-pNA and suc-AAPR-pNA are poorer substrates”. Besides, the KM in series [4] worked out at 1900 µM; in series [1] it was 680 µM. Further, the kcat/KM came to 7600 M⁻¹ s⁻¹ in series [4] and 74000 M⁻¹ s⁻¹ in series [1].

As for “SBL S156C-b of Example 2 (2-(trimethylammonium)ethyl side chain)”, the KM in series [1] came to 740 µM.

In the case of “SBL L217C-a of Example 1 (sulfonatoethyl side chain)”, the KM in series [1] turned out to be 1800 µM.

As to “SBL N62C-a of Example 1 (sulfonatoethyl side chain)”, the KM in series [1] is 930 µM.

For the molecule “SBL L217C-b of Example 2 (2-(trimethylammonium)ethyl side chain)”, the KM in series [1] stood at 690 µM.

For the molecule “SBL N62C-a of Example 2 (aminoethyl side chain)”, in series [1], the KM turned out to be 1000 µM.

In the case of “SBL S156C-c of Example 2 (5,5-bis(aminomethyl)-3-oxo-hexyl side chain)”, the KM in series [1] amounted to 760 µM.

On to “SBL S166C (unmodified cysteine mutant, R = H)”, for which the KM in series [1] was 500 µM.

Turning to SBL S166C-S-ethyl, in series [1], the KM entry is recorded as “KM0.76±0.08 mM”.

With SBL S156C-S-benzyl, the Michaelis constant (KM) entry in series [1] was “KM 0.59±0.05 mM”.

Turning to SBL L217C-S-n-pentyl, in series [1], the KM entry was “KM 0.52±0.05 mM”.

Turning to “SBL S156C (unmodified cysteine mutant, R = H)”, the Michaelis-Menten constant (KM) in series [1] amounted to 850 µM.

“SBL L217C (unmodified cysteine mutant, R = H)”: the KM in series [1] amounted to 800 µM.

For the molecule SBL S166C-S-CH2CH2C(CH3)(COO-)2, in series [1], the KM was found to be 2260 µM and the kcat/KM is 30000 M⁻¹ s⁻¹. Also, in series [2], the KM stood at 5300 µM, the catalytic efficiency (kcat/KM) stood at 80 M⁻¹ s⁻¹ and the “ΔΔG‡T = RT ln[(kcat/KM)WT/(kcat/KM)CMM]” value is on record as “S166C-S-1-0.76”.

As to “SBL L217C-e of Example 1 (3,3,4-tricarboxybutyl side chain)”, in series [1], the KM came to 1480 µM.

For the molecule SBL S166C-S-CH2-c-C6H11, in series [3], the KM is 1900 µM and the specificity constant (kcat/KM) stood at 14800 M⁻¹ s⁻¹. Moreover, in series [1], the KM was 700 µM and the kcat/KM was 6900 M⁻¹ s⁻¹.

“SBL L217C-d of Example 2 (2,2-bis(aminomethyl)-3-aminopropyl side chain)”: the KM in series [1] was 2900 µM.

“SBL S166C-d of Example 2 (2,2-bis(aminomethyl)-3-aminopropyl side chain)”: in series [1], the KM was determined as 1160 µM.

Take SBL S166C-S-CH2C6H4-3,5-(COO-)2: in series [1], the KM came to 1600 µM and the catalytic efficiency (kcat/KM) worked out at 29000 M⁻¹ s⁻¹. Moreover, in series [2], the KM was 5500 µM, the kcat/KM came out at 120 M⁻¹ s⁻¹ and the “ΔΔG‡T = RT ln[(kcat/KM)WT/(kcat/KM)CMM]” value is recorded as “S166C-S-d -1.00”.

Take SBL S166C-S-CH2C6H5: in series [3], the KM came out at 800 µM and the kcat/KM is 9000 M⁻¹ s⁻¹. Moreover, in series [1], the Michaelis-Menten constant (KM) was determined as 1170 µM and the kcat/KM stood at 20000 M⁻¹ s⁻¹.

Regarding “SBL S166C-c of Example 2 (5,5-bis(aminomethyl)-3-oxo-hexyl side chain)”, the KM in series [1] is 1270 µM.

With “SBL L217C-b of Example 1 (4-carboxybutyl side chain)”, in series [1], the KM is 1030 µM.

“SBL L217C-d of Example 1 (3,3-dicarboxybutyl side chain)”: in series [1], the KM was 1650 µM.

Take SBL N62C-S-ethyl: in series [1], the KM result is on record as “KM 0.55±0.04 mM”.

Take “SBL L217C-a of Example 2 (aminoethyl side chain)”: the KM in series [1] turned out to be 640 µM.

Regarding “SBL N62C-d of Example 2 (2,2-bis(aminomethyl)-3-aminopropyl side chain)”, in series [1], the KM was found to be 1170 µM.

Consider “SBL N62C-c of Example 2 (5,5-bis(aminomethyl)-3-oxo-hexyl side chain)”, for which the KM in series [1] was found to be 1060 µM.

Turning to “SBL L217C-c of Example 1 (3,5-dicarboxybenzyl side chain)”, the KM in series [1] worked out at 810 µM.

Take “SBL S156C-b of Example 1 (4-carboxybutyl side chain)”: the KM in series [1] came out at 1080 µM.

As to “SBL N62C-b of Example 1 (4-carboxybutyl side chain)”, the KM in series [1] was found to be 1010 µM.

Regarding “SBL N62C-d of Example 1 (3,3-dicarboxybutyl side chain)”, the KM in series [1] was found to be 1470 µM.

For the molecule SBL S166C-S-CH2CH2C(COO-)3, in series [1], the KM was determined as 2460 µM and the specificity constant (kcat/KM) was determined as 31000 M⁻¹ s⁻¹. Besides, in series [2], the KM came out at 5200 µM, the kcat/KM amounted to 200 M⁻¹ s⁻¹ and the “ΔΔG‡T = RT ln[(kcat/KM)WT/(kcat/KM)CMM]” value is “S166C-S-j -1.31”.

Consider SBL S166C-(CH2)2NMe3+, for which the KM in series [1] is 1420 µM.

In the case of “SBL S156C-d of Example 2 (2,2-bis(aminomethyl)-3-aminopropyl side chain)”, the KM in series [1] came to 810 µM.

Consider “SBL S156C-e of Example 1 (3,3,4-tricarboxybutyl side chain)”, for which the KM in series [1] was determined as 1870 µM.

As for “SBL S156C-c of Example 1 (3,5-dicarboxybenzyl side chain)”, in series [1], the Michaelis constant (KM) was 1390 µM.

Turning to “SBL N62C-b of Example 2 (2-(trimethylammonium)ethyl side chain)”, the KM in series [1] is 860 µM.

In the case of “SBL S156C-d of Example 1 (3,3-dicarboxybutyl side chain)”, the KM in series [1] is 1670 µM.

In the case of SBL N62C-S-n-pentyl, the KM entry in series [1] is listed as “KM 0.75±0.05 mM”.

For the molecule “SBL N62C-c of Example 1 (3,5-dicarboxybenzyl side chain)”, the KM in series [1] was determined as 1000 µM.

Turning to SBL S166C-S-CH2CH2SO3-, in series [1], the KM was 1340 µM and the kcat/KM was found to be 19000 M⁻¹ s⁻¹. For the same molecule, in series [2], the KM amounted to 3400 µM, the catalytic efficiency (kcat/KM) stood at 50 M⁻¹ s⁻¹ and the “ΔΔG‡T = RT ln[(kcat/KM)WT/(kcat/KM)CMM]” value is “S166C-S-b -0.49”.

As for “SBL S156C-a of Example 1 (sulfonatoethyl side chain)”, in series [1], the KM came to 1200 µM.

Take “SBL S156C-a of Example 2 (aminoethyl side chain)”: in series [1], the KM was 730 µM.

B1: subtilisin Bacillus lentus, wild type (protein)
chain: AQSVPWGISRVQAPAAHNRGLTGSGVKVAVLDTGISTHPDLNIRGGASFVPGEPSTQDGNGHGTHVAGTIAALNNSIGVLGVAPSAELYAVKVLGASGSGSVSSIAQGLEWAGNNGMHVANLSLGSPSPSATLEQAVNSATSRGVLVVAASGNSGAGSISYPARYANAMAVGATDQNNNRASFSQYGAGLDIVAPGVNVQSTYPGSTYASLNGTSMATPHVAGAAALVKQKNPSWSNVQIRNHLKNTATSLGSTNLYGSGLVNAEAATR
In the case of B1, the KM in series [5] came out at 7200 µM; in series [6], 4400 µM; in series [7], 2000 µM; in series [8] it was 730 µM. Further, the kcat/KM in series [5] was determined as 22 M⁻¹ s⁻¹; in series [6], 400 M⁻¹ s⁻¹; in series [7] it was 8800 M⁻¹ s⁻¹; in series [8], 209000 M⁻¹ s⁻¹.
